According to publication PMC11698036, “Borg5 restricts contractility and motility in epithelial MDCK cells” (Journal of Cell Science, 2024):

T1: His–Borg5 (recombinant mouse Borg5, Cdc42EP1) (mouse, UniProt Q91W92 1-409)
T1 construct: Borg5 (Cdc42EP1), mouse cDNA (Borg5–Myc cDNA of Vong et al., 2010), PCR-cloned into pet28a+; All recombinant Borg5 constructs were based on mouse Borg5–Myc cDNA; Runs at 50 kDa on the His blot; also called His-tagged Borg5; source: E. coli BL21(DE3), purified (boiled, 8 M urea, Ni-NTA agarose; also purified under native conditions)
T1 sequence (looked up): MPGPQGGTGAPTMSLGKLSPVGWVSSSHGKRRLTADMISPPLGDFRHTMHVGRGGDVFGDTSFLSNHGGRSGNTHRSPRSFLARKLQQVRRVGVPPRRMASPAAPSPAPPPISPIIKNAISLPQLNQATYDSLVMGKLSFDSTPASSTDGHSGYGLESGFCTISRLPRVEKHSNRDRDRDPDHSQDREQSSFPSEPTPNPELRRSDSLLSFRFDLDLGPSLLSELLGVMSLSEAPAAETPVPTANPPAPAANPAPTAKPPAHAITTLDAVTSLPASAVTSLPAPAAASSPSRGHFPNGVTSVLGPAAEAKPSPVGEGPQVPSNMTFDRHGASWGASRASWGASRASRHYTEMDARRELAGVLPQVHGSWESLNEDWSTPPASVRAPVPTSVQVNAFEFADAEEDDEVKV


How the values were obtained:
[1] = target: T1, His–Borg5 (recombinant mouse Borg5, …); test: pull-down; three-way assay: His–Borg5 pre-incubated with septin 9-6-7-2 complexes, then bound to GST–MyoIIA-Rod immobilised on glutathione resin; septin buffer (300 mM KCl), 4°C; Coomassie gel and His blot; two experiments; conditions: both partners purified
[2] = target: T1, His–Borg5 (recombinant mouse Borg5, …); test: pull-down; three-way assay: His–MyoIIA-Rod pre-incubated with His–Borg5, then bound to His–SEPT2/6/7/9–Strep immobilised on Strep-Tactin Sepharose; septin buffer (300 mM KCl), 4°C; biotin elution; His blot; four experiments; conditions: both partners purified

Binder	His–Borg5 binding to Myo–GST with SEPT complexes, relative to that without septins (experiment 1) [1]	His–Borg5 binding to Myo–GST with SEPT complexes, relative to that without septins (experiment 2) [1]	Borg5–SEPT binding with His-MyoIIRod, relative to that without MyoIIRod [2]
septin 9–septin 6–septin 7–septin 2 complex (His–SEPT2/6/7/9–Strep) (complex, Prepared according to Castro-Linares et al. (2022); Tag ends are read from the plasmid names; As I recall, these Addgene plasmids hold mouse SEPT2 and human SEPT6, SEPT7 and SEPT9_i1; also called septin 9-6-7-2; SEPT complexes; source: E. coli BL21(DE3), co-expressed, purified (nickel agarose, then Strep-Tactin Sepharose); not shown: 6xHis, N-terminal, kept; Strep tag, C-terminal, kept; copies: + …) chain 1: MSKQQPTQFINPETPGYVGFANLPNQVHRKSVKKGFEFTLMVVGESGLGKSTLINSLFLTDLYPERIIPGAAEKIERTVQIEASTVEIEERGVKLRLTVVDTPGYGDAINCRDCFKTIISYIDEQFERYLHDESGLNRRHIIDNRVHCCFYFISPFGHGLKPLDVAFMKAIHNKVNIVPVIAKADTLTLKERERLKKRILDEIEEHSIKIYHLPDAESDEDEDFKEQTRLLKASIPFSVVGSNQLIEAKGKKVRGRLYPWGVVEVENPEHNDFLKLRTMLITHMQDLQEVTQDLHYENFRSERLKRGGRKVENEDMNKDQILLEKEAELRRMQEMIARMQAQMQMQMQGGDSDSGALGQHV chain 2: MAATDIARQVGEGCRTVPLAGHVGFDSLPDQLVNKSVSQGFCFNILCVGETGLGKSTLMDTLFNTKFEGEPATHTQPGVQLQSNTYDLQESNVRLKLTIVSTVGFGDQINKEDSYKPIVEFIDAQFEAYLQEELKIRRVLHTYHDSRIHVCLYFIAPTGHSLKSLDLVTMKKLDSKVNIIPIIAKADAISKSELTKFKIKITSELVSNGVQIYQFPTDDESVAEINGTMNAHLPFAVIGSTEELKIGNKMMRARQYPWGTVQVENEAHCDFVKLREMLIRVNMEDLREQTHTRHYELYRRCKLEEMGFKDTDPDSKPFSLQETYEAKRNEFLGELQKKEEEMRQMFVQRVKEKEAELKEAEKELHEKFDRLKKLHQDEKKKLEDKKKSLDDEVNAFKQRKTAAELLQSQGSQAGGSQTLKRDKEKKNNPWLCTE chain 3: MSVSARSAAAEERSVNSSTMVAQQKNLEGYVGFANLPNQVYRKSVKRGFEFTLMVVGESGLGKSTLINSLFLTDLYSPEYPGPSHRIKKTVQVEQSKVLIKEGGVQLLLTIVDTPGFGDAVDNSNCWQPVIDYIDSKFEDYLNAESRVNRRQMPDNRVQCCLYFIAPSGHGLKPLDIEFMKRLHEKVNIIPLIAKADTLTPEECQQFKKQIMKEIQEHKIKIYEFPETDDEEENKLVKKIKDRLPLAVVGSNTIIEVNGKRVRGRQYPWGVAEVENGEHCDFTILRNMLIRTHMQDLKDVTNNVHYENYRSRKLAAVTYNGVDNNKNKGQLTKSPLAQMEEERREHVAKMKKMEMEMEQVFEMKVKEKVQKLKDSEAELQRRHEQMKKNLEAQHKELEEKRRQFEDEKANWEAQQRILEQQNSSRTLEKNKKKGKIF chain 4: MKKSYSGGTRTSSGRLRRLGDSSGPALKRSFEVEEVETPNSTPPRRVQTPLLRATVASSTQKFQDLGVKNSEPSARHVDSLSQRSPKASLRRVELSGPKAAEPVSRRTELSIDISSKQVENAGAIGPSRFGLKRAEVLGHKTPEPAPRRTEITIVKPQESAHRRMEPPASKVPEVPTAPATDAAPKRVEIQMPKPAEAPTAPSPAQTLENSEPAPVSQLQSRLEPKPQPPVAEATPRSQEATEAAPSCVGDMADTPRDAGLKQAPASRNEKAPVDFGYVGIDSILEQMRRKAMKQGFEFNIMVVGQSGLGKSTLINTLFKSKISRKSVQPTSEERIPKTIEIKSITHDIEEKGVRMKLTVIDTPGFGDHINNENCWQPIMKFINDQYEKYLQEEVNINRKKRIPDTRVHCCLYFIPATGHSLRPLDIEFMKRLSKVVNIVPVIAKADTLTLEERVHFKQRITADLLSNGIDVYPQKEFDEDSEDRLVNEKFREMIPFAVVGSDHEYQVNGKRILGRKTKWGTIEVENTTHCEFAYLRDLLIRTHMQNIKDITSSIHFEAYRVKRLNEGSSAMANGMEEKEPEAPEM	0.6 fraction of that observed without septins present	0.3 fraction of that observed without septins present	–
His-tagged rod domain of myosin IIA (His–MyoIIA-Rod) (domain or fragment, UniProt P35579 1339-1960, looked up, Myosin IIA heavy chain (MYH9), rod domain, amino acids 1339–1960, in pet28a; Construct provided by Anne Bresnick; also called His-MyoIIRod; His-MyoRod; source: E. coli BL21(DE3), purified (Mg-ATP step, nickel agarose)) NSFREQLEEEEEAKHNLEKQIATLHAQVADMKKKMEDSVGCLETAEEVKRKLQKDLEGLSQRHEEKVAAYDKLEKTKTRLQQELDDLLVDLDHQRQSACNLEKKQKKFDQLLAEEKTISAKYAEERDRAEAEAREKETKALSLARALEEAMEQKAELERLNKQFRTEMEDLMSSKDDVGKSVHELEKSKRALEQQVEEMKTQLEELEDELQATEDAKLRLEVNLQAMKAQFERDLQGRDEQSEEKKKQLVRQVREMEAELEDERKQRSMAVAARKKLEMDLKDLEAHIDSANKNRDEAIKQLRKLQAQMKDCMRELDDTRASREEILAQAKENEKKLKSMEAEMIQLQEELAAAERAKRQAQQERDELADEIANSSGKGALALEEKRRLEARIAQLEEELEEEQGNTELINDRLKKANLQIDQINTDLNLERSHAQKNENARQQLERQNKELKVKLQEMEGTVKSKYKASITALEAKIAQLEEQLDNETKERQAACKQVRRTEKKLKDVLLQVDDERRNAEQYKDQADKASTRLKQLKRQLEEAEEEAQRANASRRKLQRELEDATETADAMNREVSSLKNKLRRGDLPFVVPRRMARKGAGDGSDEEVDGKADGAEAKPAE	–	–	0.57 fraction of that without MyoIIRod
